This note sets out measurements from patent US20050282743A1, “Molecular interactions in cells” (Arbor Vita Corporation, priority 2001, published 2005).

Ends that are not written are not given here. * marks the point of attachment. Biotin = O=C1N[C@H]2[C@H](CS[C@H]2CCCCC(=O)*)N1

Holding throughout (type): binding
For assay [1], the target named is T1, DLG-1 (Homo sapiens, UniProt Q12959).
T1 construct: protein spans from amino terminal end of first PDZ domain to carboxy-terminal end of third PDZ domain in frame with GST in vector; made in house; host or cells: E. coli DH5alpha
Nature of the assay: G assay competition of short unlabeled peptides with biotinylated 20-mers (Example 6, TABLE 6). Conditions: competitor 50 uM, 100 = no competitor. The source says: (§1) The potential for unlabeled 8-mers and 3-mers to compete for binding with biotinylated 20-mers to PDZ domains was examined. Interactions between a PDZ domain and two or more biotinylated peptides mimicking PDZ ligands identified through the ‘G Assay’ were used as model interactions. Short, 3 or 8 amino acid, unlabeled peptides were synthesized by standard techniques and used at variable concentrations with a set concentration of biotinylated 20-mer. Ability of both the 3-mer and 8-mer to inhibit longer peptide binding was observed, making PDZ:PL interactions an attractive target for design of small molecule or peptide therapeutics.
(§2) Peptides representing the C-terminal 3, 8 or 20 amino acids of a PDZ ligand were synthesized by standard FMOC chemistry and biotinylated if not used as an unlabeled competitor. Peptides three amino acids in length were acetylated to more properly mimic the peptide bond without introducing an amino-terminal charged group. Peptides were purified by reverse phase high performance liquid chromatography (HPLC) using a Vydac 218TP C18 Reversed Phase column having the dimensions of 10*25 mm, 5 um. Approximately 40 mg of peptide was dissolved in 2.0 ml of and aqueous solution of 49.9% acetonitrile and 0.1% Tri-Fluoro acetic acid (TFA). This solution was then injected into the HPLC machine through a […] syringe filter (Millipore). Buffers used to get a good separation are (A) distilled water with 0.1% TFA and (B) 0.1% TFA with Acetonitrile.
(§3) The G Assay was performed as described in EXAMPLE 3 with the exception that when a short competitor was used, 30 ul of competitor peptide (at twice the final concentration) was mixed with 30 ul biotinylated 20-mer (at twice the final concentration) and then added to the well.
(§4) PSD-95 and DLG-1 were incubated in the wells at 5 ug/ml as described in the G Assay protocol. Biotinylated 20-mer peptides used were 20 uM CLASP-2, 20 uM CD46, 10 uM CD95, and 10 uM KV1.3 (find sequences of peptides in TABLE 8). Competitors (unlabeled, short peptides) tested against each of the biotinylated peptides were 50 uM 8-mer of CD95, 100 uM 8-mer of CD46, 50 uM 8-mer of CLASP-2, and 1 mM and 500 uM acetylated 3-mer of CLASP-2. To deduce sequences, refer to TABLE 8. All absorbances were read at 450 nm after stopping TMB detection reaction at 30 min. Results were normalized in each group by dividing its A450 by the A450 of the PDZ/peptide binding in the absence of competitor and converting to percentage by multiplying by 100.

Assay [2] deals with T2, PSD-95 (Homo sapiens, UniProt P78352).
T2 construct: protein spans from amino terminal end of first PDZ domain to carboxy-terminal end of third PDZ domain in frame with GST in vector; made in house; host or cells: E. coli DH5alpha
The description is as above. The following applies: competitor 50 uM, 100 = no competitor.
From the text: as §1, §2, §3, §4

Assay [3] deals with T3, PDZ protein (GST-PDZ fusion) (Homo sapiens, UniProt O14907).
T3 construct: made in house; host or cells: E. coli (DH5alpha, BL21 or JM109)
T3 sequence (O14907 1-124): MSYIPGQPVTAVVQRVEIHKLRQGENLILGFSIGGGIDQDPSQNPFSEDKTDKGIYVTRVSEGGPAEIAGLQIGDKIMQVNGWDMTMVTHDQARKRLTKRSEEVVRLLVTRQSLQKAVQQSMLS
As to the kind of experiment: G' assay (10 uM PL peptide), results of TABLE 7 and TABLE 12. Conditions: PDZ TIP1, PDZ Domain 1. From the text: (§5) Each page of TABLE 7 and 12 includes seven columns. The columns in each table are numbered from left to right such that the left-most column in each table is column 1 and the right-most column in each table is column 7. Thus, the first column in each table is labeled “AVC ID”; this column simply lists an internal reference number used to refer to the carboxyl-terminal amino acids of the PL proteins listed in the second column. […] All PL peptides were biotinylated at the amino-terminus and the sequences of these PL peptides are presented in TABLE 8 (see end of specification).
(§6) This column provides the gene name for the PDZ portion of the GST-PDZ fusion that interacts with the PDZ-ligand to the left. For PDZ domain-containing proteins with multiple domains, the domain number is listed to the right of the PDZ (i.e., in column 5 labeled “PDZ Domain”), and indicates the PDZ domain number when numbered from the amino-terminus to the carboxy-terminus.
(§7) The third column labeled “Peptide Optimal Concentration” in the tables is a number reflective of the binding interaction between the PL protein and PDZ protein. […] The column labeled “Protein Optimal Concentration” refers to the protein concentration used to assay PL interaction (in ug/ml); a ‘0’ is indicative of 5 ug/ml protein concentration; any other value represents the concentration (in ug/ml) used to determine the dissociation constant for a given interaction.
(§8) Finally, the seventh column labeled “Classification” is another measure of the level of binding. In particular, it provides an absorbance value at 450 nm which indicates the amount of PL peptide bound to the PDZ protein. The following numerical values have the following meanings: ‘1’—A450 nm 0-1; ‘2’—A450 nm 1-2; ‘3’—A450 nm 2-3; ‘4’—A450 nm 3-4; ‘5’—A450 nm of 4 more than 2× repeated; ‘0’—A450 nm 0, i.e., not found to interact. Thus, higher numbers indicate stronger interactions.
(§9) For convenience, the assay conditions described in this section are referred to as the “G′ assay” and the “G″ assay,” with the specific conditions described in the preceding section on G assays being referred to as the “G^0 assay.” The “G′ assay” is identical to the “G^0 assay” except at step (2) the peptide concentration is 10 uM instead of 20 uM.

The subject of assay [4] is PDZ protein (GST-PDZ fusion). Described as above.
From the text: as §5, §6, §7, §8, §9

Assay [5] has as its target T4, PDZ protein (GST-PDZ fusion) (Homo sapiens, UniProt Q6P0Q8).
T4 construct: made in house; host or cells: E. coli (DH5alpha, BL21 or JM109)
Described as above.
From the text: as §5, §6, §7, §8, §9

Assay [6] concerns the target T5, PDZ protein (GST-PDZ fusion) (Homo sapiens, UniProt Q13796).
T5 construct: made in house; host or cells: E. coli (DH5alpha, BL21 or JM109)
The description is as above. Conditions: PDZ hAPXL, PDZ Domain 1.
From the text: as §5, §6, §7, §8, §9

Assay [7] addresses T6, PDZ protein (GST-PDZ fusion) (Homo sapiens, UniProt O15018).
T6 construct: made in house; host or cells: E. coli (DH5alpha, BL21 or JM109)
The description is as above. Conditions: PDZ AIPC, PDZ Domain 1.
From the text: as §5, §6, §7, §8, §9

The target of assay [8] is T7, PDZ protein (GST-PDZ fusion) (Homo sapiens, UniProt Q5TCQ9).
T7 construct: made in house; host or cells: E. coli (DH5alpha, BL21 or JM109)
T7 sequence (Q5TCQ9 1-1481): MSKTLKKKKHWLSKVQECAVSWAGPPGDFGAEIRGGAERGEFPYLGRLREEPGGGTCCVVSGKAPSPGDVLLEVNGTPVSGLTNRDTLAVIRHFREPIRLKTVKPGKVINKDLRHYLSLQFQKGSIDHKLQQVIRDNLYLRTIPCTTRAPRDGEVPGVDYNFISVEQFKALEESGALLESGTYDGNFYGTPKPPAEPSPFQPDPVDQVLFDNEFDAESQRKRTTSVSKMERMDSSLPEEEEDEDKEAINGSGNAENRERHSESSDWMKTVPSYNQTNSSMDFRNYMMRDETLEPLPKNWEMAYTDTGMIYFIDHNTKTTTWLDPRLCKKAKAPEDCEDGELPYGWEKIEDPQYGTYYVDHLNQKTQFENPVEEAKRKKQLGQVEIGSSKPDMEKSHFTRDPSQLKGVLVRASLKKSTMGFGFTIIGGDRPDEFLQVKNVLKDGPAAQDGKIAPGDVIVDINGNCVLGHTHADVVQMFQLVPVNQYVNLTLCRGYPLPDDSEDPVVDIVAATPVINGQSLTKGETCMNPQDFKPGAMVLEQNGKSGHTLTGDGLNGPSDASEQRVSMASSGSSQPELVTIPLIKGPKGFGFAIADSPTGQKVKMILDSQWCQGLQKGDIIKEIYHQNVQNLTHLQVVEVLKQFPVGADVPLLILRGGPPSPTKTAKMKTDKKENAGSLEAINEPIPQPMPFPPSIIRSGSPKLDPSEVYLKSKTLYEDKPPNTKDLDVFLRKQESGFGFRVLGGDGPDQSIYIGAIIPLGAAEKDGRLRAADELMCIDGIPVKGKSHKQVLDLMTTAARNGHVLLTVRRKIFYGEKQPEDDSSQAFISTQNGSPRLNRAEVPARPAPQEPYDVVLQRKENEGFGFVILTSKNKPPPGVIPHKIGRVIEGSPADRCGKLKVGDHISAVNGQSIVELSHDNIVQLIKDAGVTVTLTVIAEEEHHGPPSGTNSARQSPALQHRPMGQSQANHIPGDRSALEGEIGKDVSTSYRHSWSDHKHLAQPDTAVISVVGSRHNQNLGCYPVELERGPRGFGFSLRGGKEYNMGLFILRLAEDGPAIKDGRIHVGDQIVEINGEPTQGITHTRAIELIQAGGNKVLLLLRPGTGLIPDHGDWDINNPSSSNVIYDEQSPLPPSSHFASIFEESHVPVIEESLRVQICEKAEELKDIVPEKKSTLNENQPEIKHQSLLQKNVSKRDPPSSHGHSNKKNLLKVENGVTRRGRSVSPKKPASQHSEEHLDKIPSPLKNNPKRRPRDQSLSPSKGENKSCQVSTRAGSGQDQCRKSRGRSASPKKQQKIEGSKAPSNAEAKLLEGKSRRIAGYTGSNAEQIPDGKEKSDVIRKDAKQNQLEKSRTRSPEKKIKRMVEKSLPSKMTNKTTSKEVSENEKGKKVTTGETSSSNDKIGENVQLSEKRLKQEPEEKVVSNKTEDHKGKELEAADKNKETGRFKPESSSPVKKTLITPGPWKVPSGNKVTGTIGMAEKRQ
Described as above. The following applies: PDZ KIAA1634, PDZ Domain 2.
From the text: as §5, §6, §7, §8, §9

For assay [9], the target named is T8, PDZ protein (GST-PDZ fusion) (Homo sapiens, UniProt Q12923).
T8 construct: made in house; host or cells: E. coli (DH5alpha, BL21 or JM109)
Described as above. Conditions: PDZ PTPL-1, PDZ Domain 2.
From the text: as §5, §6, §7, §8, §9

For assay [10], the target named is T9, PDZ protein (GST-PDZ fusion) (Homo sapiens, UniProt Q14160).
T9 construct: made in house; host or cells: E. coli (DH5alpha, BL21 or JM109)
The description is as above. Conditions: PDZ KIAA0147, PDZ Domain 1.
From the text: as §5, §6, §7, §8, §9

[11] abbreviates: biotinylated 20-mer CLASP-2 20 uM.

T4 sequence (Q6P0Q8 whole entry, the tested form may be a part): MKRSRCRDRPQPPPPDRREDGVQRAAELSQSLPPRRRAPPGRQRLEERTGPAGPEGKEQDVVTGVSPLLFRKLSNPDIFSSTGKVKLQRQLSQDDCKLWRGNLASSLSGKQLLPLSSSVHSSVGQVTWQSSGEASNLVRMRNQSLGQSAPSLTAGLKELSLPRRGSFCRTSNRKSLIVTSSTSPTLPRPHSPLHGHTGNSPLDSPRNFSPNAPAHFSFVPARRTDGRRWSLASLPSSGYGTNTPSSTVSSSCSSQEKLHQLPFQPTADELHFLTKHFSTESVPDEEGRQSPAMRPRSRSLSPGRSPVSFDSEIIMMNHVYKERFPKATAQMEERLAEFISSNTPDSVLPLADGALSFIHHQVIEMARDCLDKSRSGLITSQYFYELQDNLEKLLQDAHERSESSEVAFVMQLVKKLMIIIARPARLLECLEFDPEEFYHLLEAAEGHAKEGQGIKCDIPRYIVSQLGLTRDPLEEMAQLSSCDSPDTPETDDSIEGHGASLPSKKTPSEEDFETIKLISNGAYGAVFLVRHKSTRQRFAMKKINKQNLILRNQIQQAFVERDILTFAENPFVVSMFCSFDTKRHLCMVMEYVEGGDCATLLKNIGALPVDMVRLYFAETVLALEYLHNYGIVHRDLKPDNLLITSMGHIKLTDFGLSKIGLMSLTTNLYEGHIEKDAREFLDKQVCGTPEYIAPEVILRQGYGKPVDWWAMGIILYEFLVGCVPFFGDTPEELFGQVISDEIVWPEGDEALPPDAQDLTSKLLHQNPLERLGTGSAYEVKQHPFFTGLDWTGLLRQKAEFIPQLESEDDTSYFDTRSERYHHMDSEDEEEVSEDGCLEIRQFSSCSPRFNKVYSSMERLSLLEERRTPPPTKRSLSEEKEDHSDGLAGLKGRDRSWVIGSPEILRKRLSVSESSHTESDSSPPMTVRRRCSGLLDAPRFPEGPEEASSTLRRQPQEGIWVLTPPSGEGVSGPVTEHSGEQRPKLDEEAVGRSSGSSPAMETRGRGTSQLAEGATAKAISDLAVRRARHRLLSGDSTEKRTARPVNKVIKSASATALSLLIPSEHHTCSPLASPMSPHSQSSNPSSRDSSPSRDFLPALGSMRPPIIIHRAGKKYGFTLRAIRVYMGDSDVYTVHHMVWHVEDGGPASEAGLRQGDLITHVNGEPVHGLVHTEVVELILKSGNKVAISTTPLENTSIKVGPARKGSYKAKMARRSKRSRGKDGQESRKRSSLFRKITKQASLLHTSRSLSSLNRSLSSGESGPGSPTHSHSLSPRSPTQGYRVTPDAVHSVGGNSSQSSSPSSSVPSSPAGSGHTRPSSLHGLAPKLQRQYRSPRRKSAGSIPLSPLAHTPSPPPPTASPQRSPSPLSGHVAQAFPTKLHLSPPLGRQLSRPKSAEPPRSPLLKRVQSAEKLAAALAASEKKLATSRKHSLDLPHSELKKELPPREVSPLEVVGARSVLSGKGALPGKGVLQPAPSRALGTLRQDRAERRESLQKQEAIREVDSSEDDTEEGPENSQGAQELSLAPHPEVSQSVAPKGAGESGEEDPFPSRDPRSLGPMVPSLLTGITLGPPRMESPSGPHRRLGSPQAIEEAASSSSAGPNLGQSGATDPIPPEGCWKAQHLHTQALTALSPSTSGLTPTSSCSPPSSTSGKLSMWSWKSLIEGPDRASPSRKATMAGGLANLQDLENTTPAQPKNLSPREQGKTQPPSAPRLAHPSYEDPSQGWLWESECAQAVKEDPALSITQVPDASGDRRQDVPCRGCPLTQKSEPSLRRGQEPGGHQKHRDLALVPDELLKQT
T2 sequence (P78352 58-398 limits assumed): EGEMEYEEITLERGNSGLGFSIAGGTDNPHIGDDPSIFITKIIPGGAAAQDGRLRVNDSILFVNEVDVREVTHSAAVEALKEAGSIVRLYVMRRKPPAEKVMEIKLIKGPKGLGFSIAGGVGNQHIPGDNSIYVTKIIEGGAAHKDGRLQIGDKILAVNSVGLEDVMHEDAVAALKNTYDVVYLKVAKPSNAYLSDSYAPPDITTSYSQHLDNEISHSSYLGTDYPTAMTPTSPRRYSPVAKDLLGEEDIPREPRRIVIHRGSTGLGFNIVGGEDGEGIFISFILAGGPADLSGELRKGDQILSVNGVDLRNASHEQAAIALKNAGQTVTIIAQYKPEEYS
T1 sequence (Q12959 224-546 limits assumed): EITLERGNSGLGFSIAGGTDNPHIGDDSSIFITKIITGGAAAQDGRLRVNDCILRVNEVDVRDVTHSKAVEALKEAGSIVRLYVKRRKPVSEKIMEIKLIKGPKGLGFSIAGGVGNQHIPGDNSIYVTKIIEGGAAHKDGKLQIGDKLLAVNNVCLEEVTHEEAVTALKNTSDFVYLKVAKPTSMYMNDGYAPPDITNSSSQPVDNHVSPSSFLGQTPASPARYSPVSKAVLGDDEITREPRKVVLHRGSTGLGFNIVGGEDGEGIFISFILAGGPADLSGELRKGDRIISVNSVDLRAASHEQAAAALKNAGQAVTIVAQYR
T5 sequence (Q13796 whole entry, the tested form may be a part): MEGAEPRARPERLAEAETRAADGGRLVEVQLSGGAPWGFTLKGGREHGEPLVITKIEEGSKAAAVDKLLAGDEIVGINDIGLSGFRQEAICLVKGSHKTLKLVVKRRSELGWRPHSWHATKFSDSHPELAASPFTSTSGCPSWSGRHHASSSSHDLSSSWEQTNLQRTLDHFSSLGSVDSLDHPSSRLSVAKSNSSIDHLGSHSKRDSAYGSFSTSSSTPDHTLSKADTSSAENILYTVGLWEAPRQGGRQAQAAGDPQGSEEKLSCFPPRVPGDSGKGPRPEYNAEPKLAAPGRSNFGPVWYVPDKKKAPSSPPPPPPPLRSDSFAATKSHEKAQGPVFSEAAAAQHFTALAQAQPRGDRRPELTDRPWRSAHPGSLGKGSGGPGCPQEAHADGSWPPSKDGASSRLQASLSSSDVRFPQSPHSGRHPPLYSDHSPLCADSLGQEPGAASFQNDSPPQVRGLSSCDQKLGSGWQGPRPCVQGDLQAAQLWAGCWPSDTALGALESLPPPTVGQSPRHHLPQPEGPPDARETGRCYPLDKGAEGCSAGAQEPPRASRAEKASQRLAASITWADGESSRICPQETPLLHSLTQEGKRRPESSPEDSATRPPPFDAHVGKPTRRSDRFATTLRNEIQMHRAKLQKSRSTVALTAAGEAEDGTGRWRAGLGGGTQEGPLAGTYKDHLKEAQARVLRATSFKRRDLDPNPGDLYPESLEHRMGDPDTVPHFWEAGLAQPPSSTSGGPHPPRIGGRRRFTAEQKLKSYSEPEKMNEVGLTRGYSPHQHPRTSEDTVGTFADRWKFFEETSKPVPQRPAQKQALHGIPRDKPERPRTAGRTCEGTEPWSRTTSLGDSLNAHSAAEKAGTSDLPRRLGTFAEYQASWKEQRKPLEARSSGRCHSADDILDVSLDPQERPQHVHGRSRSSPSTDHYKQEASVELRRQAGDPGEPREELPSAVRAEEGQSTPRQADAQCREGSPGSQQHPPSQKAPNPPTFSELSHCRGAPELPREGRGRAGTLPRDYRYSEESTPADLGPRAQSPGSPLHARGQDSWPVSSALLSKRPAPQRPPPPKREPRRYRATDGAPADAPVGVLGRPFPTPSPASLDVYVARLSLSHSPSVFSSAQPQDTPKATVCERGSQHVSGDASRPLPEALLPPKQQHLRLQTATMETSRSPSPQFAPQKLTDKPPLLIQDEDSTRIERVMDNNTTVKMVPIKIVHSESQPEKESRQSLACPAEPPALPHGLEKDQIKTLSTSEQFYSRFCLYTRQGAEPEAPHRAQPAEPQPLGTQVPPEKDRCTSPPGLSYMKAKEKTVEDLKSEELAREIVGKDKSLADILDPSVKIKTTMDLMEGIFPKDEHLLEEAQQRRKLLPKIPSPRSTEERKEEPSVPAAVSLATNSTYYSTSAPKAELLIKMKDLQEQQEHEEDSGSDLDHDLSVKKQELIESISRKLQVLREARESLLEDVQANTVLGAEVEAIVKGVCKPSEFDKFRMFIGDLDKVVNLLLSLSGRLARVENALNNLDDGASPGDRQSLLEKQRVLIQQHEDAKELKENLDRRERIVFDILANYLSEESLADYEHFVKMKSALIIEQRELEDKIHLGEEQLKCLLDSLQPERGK

Consider “MTSSSSVV [CLASP-2 8-mer, unlabeled peptide of the C-terminal 8 amino acids of CLASP-2]”, for which the “% binding” value is recorded as 105% in assay [1] (biotinylated 20-mer CD46 20 uM); 75% in [1] (biotinylated 20-mer CD95 10 uM); 93% in assay [1] (setting [11]); 90% in [2] (biotinylated 20-mer CD46 20 uM); 80% in [2] (biotinylated 20-mer CD95 10 uM); 85% in assay [2] (setting [11]). For the same substance, the “% binding” value in assay [2] (biotinylated 20-mer KV1.3 10 uM) is listed as 82%.

“SEGGRPTRGPRLQGRRVTQV [HPV E6 52 (modified)]”: the Classification in assay [3] is on record as 0 (A450 nm 0, i.e., not found to interact); in assay [4] (PDZ BAI-1, PDZ Domain 2) it was 5 (A450 nm of 4 more than 2× repeated).

As for “ACM3_HUMAN (Biotin-QQYQQRQSVIFHKRAPEQAL)”, the Classification in assay [5] (PDZ KIAA807) is recorded as 1 (A450 nm 0-1); in assay [5] (PDZ KIAA0807(S), PDZ Domain 1), 1 (A450 nm 0-1); in assay [6] it was 1 (A450 nm 0-1); in [7], 1 (A450 nm 0-1).

For the substance “GPDGIITVNDFTQNPRVQLE (Biotin-GPDGIITVNDFTQNPRVQLE) [ropporin]”, in assay [3], the Classification was 1 (A450 nm 0-1).

With “PYQSQGFSTEEDEDEQVSAV (Biotin-PYQSQGFSTEEDEDEQVSAV) [RA-GEF (ras/rap1A-assoc-GEF)]”, the Classification is recorded as 2 (A450 nm 1-2) in assay [8], 4 (A450 nm 3-4) in [9] and 1 (A450 nm 0-1) in assay [10].

Regarding “SGGNRARQERLQRRRETQV (Biotin-SGGNRARQERLQRRRETQV) [HPV E6 #18]”, the Classification was 4 (A450 nm 3-4) in [3] and 5 (A450 nm of 4 more than 2× repeated) in [4] (PDZ BAI-1, PDZ Domain 2).

On to GTSDMKDLVGNIEQNEHSVI [Mannose Receptor], for which the Classification in assay [5] (PDZ KIAA807) was 1 (A450 nm 0-1); in assay [5] (PDZ KIAA0807(S), PDZ Domain 1) it was 1 (A450 nm 0-1); in [4] (PDZ FLJ 00011, PDZ Domain 1), 1 (A450 nm 0-1); in assay [6] it was 1 (A450 nm 0-1).
